Experimental data taken from PMC4617720, “Antigenic Characterization of the HCMV gH/gL/gO and Pentamer Cell Entry Complexes Reveals Binding Sites for Potently Neutralizing Human Antibodies” (PLoS Pathogens, 2015).

B3: HCMV UL130 (natural protein)
chain: SPWSTLTANQNPSPPWSKLTYSKPHDAATFYCPFLYPSPPRSPLQFSGFQRVSTGPECRNETLYLLYNREGQTLVERSSTWVKKVIWYLSGRNQTILQRMPRTASKPSDGNVQISVEDAKIFGAHMVPKQTKLLRFVVNDGTRYQMCVMKLESWAHVFRDYSVSFQVRLTFTEANNQTYTFCTHPNLIV
notes: source: 293EBNA cells, transfected with individual plasmids encoding each subunit; not shown: Strep-tag II, C-terminal, kept

Assays:
Conditions in all cases: both partners purified
[1] = molecular target: B3; assay: cross-linking; purified unbound Pentamer (with UL131A-K27R), 36 pmol, 600-fold excess of DSSG-d0/d6 (links lysines up to 25 Å apart), 10 mM HEPES pH 7.5, 300 mM NaCl, RT, 30 min; cross-linked peptides identified by LC-MS/MS (xQuest)
[2] = molecular target: T1, HCMV glycoprotein H (gH), soluble, terminated at amino acid 715 (human cytomegalovirus (HCMV), Merlin …, UniProt Q6SW67 24-715); assay: non-reducing SDS-PAGE with western blot; purified Pentamer, non-boiled and non-reduced (-/-), blotted with rabbit polyclonal anti-Pentamer antibody
T1 construct: source: 293EBNA cells, transfected with individual plasmids encoding each subunit
T1 sequence: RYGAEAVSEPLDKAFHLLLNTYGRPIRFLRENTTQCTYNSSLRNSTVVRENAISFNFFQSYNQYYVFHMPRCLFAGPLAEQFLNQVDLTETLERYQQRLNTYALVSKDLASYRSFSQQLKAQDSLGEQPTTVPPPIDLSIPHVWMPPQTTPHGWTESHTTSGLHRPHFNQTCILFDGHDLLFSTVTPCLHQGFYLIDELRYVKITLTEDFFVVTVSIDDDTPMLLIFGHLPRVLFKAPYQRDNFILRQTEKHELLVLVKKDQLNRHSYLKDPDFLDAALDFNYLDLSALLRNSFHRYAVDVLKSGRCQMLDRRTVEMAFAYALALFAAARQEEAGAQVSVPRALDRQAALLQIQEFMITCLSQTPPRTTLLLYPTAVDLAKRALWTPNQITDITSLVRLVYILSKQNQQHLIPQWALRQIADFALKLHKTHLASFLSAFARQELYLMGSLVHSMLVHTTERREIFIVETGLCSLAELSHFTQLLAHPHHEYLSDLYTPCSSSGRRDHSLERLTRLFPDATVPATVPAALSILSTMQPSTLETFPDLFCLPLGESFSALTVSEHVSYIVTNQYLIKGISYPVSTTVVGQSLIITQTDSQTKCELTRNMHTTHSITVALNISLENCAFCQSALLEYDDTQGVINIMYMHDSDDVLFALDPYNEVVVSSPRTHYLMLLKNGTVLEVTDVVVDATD

[3] = molecular target: T1, HCMV glycoprotein H (gH), soluble, …; assay: cross-linking; purified unbound Pentamer (with UL131A-K27R), 36 pmol, 600-fold excess of DSSG-d0/d6 (links lysines up to 25 Å apart), 10 mM HEPES pH 7.5, 300 mM NaCl, RT, 30 min; cross-linked peptides identified by LC-MS/MS (xQuest)

B1: HCMV UL131A-K27R (natural protein)
chain: QCQRETAERNDYYRVPHYWDACSRALPDQTRYKYVEQLVDLTLNYHYDASHGLDNFDVLKRINVTEVSLLISDFRRQNRRGGTNKRTTFNAAGSLAPHARSLEFSVRLFAN
notes: also called UL131A-K27R mutation; source: 293EBNA cells, transfected with individual plasmids encoding each subunit
binding result [1]: binds

B2: HCMV glycoprotein L (gL) (natural protein)
chain: AAVSVAPTAAEKVPAECPELTRRCLLGEVFEGDKYESWLRPLVNVTGRDGPLSQLIRYRPVTPEAANSVLLDEAFLDTLALLYNNPDQLRALLTLLSSDTAPRWMTVMRGYSECGDGSPAVYTCVDDLCRGYDLTRLSYGRSIFTEHVLGFELVPPSLFNVVVAIRNEATRTNRAVRLPVSTAAAPEGITLFYGLYNAVKEFCLRHQLDPPLLRHLDKYYAGLPPELKQTRVNLPAHSRYGPQAVDAR
notes: source: 293EBNA cells, transfected with individual plasmids encoding each subunit
binding result [2]: binds

B3
binding result [3]: binds
